Measured values: FireProtDB (doi:10.1021/bi00146a008)

B1: Lysozyme C, P61626 (parent)
chain: MKALIVLGLVLLSVTVQGKVFERCELARTLKRLGMDGYRGISLANWMCLAKWESGYNTRATNYNAGDRSTDYGIFQINSRYWCNDGKTPGAVNACHLSCSALLQDNIADAVACAKRVVRDPQGIRAWVAWRNRCQNRDVRQYVQGCGV

Variants of: B1
Conditions: Homo sapiens, pH 2.8, Thermal, DSC, glycine-HCl 50 mM, reversible: yes, structure 1LZ1, whole UniProt chain shown

Row | Variant | ddG of mutation (higher = less stable) (68.8 °C) | heat capacity change of unfolding (68.8 °C) | unfolding enthalpy (calorimetric) (68.8 °C) | Tm | change of melting temperature, mutant - wild type (higher = more stable) | heat capacity change of unfolding
1 | MKALIVLGLVLLSVTVQGKVFERCELARTLKRLGMDGYRGISLANWMCLAKWESGYNTRATNYNAGDRSTDYGIFQINSRYWCNDGKTPGAVNACHLSCSALLQDNIADAVACAKRVVRDGQGIRAWVAWRNRCQNRDVRQYVQGCGV [P121G] | 0.418 kJ/mol | 1.58 kcal/mol/K | 501 kJ/mol | 68.7 °C | -0.1 °C | 1.58 kcal/mol/K
2 | MKALIVLGLVLLSVTVQGKVFERCELARTLKRLGMDGYRGISLANWMCLAKWESGYNTRATNYNAGDRSTDYGIFQINSRYWCNDGKTGGAVNACHLSCSALLQDNIADAVACAKRVVRDGQGIRAWVAWRNRCQNRDVRQYVQGCGV [P89G P121G] | 6.69 kJ/mol | 1.58 kcal/mol/K | 504 kJ/mol | 64.3 °C | -4.5 °C | 1.58 kcal/mol/K
3 | MKALIVLGLVLLSVTVQGKVFERCELARTLKRLGMDGYRGISLANWMCLAKWESGYNTRATNYNAGDRSTDYGIFQINSRYWCNDGKTGGAVNACHLSCSALLQDNIADAVACAKRVVRDPQGIRAWVAWRNRCQNRDVRQYVQGCGV [P89G] | 6.69 kJ/mol | 1.58 kcal/mol/K | 505 kJ/mol | 64.1 °C | -4.7 °C | 1.58 kcal/mol/K
4 | MKALIVLGLVLLSVTVQGKVFERCELARTLKRLGMDGYRGISLANWMCLAKWESGYNTRATNYNAGDRSTDYGIFQINSRYWCNDGKTPGAVNACHLSCSALLQDNIAPAVACAKRVVRDPQGIRAWVAWRNRCQNRDVRQYVQGCGV [D109P] | 1.67 kJ/mol | 1.57 kcal/mol/K | 483 kJ/mol | 67.7 °C | -1.1 °C | 1.57 kcal/mol/K
5 | MKALIVLGLVLLSVTVQGKVFERCELARTLKRLGMDGYRGISLANWMCLAKWESGYNTRATNYNAGDRSTDYGIFQINSRYWCNDGKTPGAVNACHLSCSALLQDNIADAVACAKRVVRDPQGIRAWPAWRNRCQNRDVRQYVQGCGV [V128P] | -2.09 kJ/mol | 1.57 kcal/mol/K | 503 kJ/mol | 70 °C | 1.2 °C | 1.57 kcal/mol/K
6 | MKALIVLGLVLLSVTVQGKVFERCELARTLKRLGMDGYRGISLANWMCLAKWESGYNTRATNYNPGDRSTDYGIFQINSRYWCNDGKTPGAVNACHLSCSALLQDNIADAVACAKRVVRDPQGIRAWVAWRNRCQNRDVRQYVQGCGV [A65P] | -0.418 kJ/mol | 1.56 kcal/mol/K | 500 kJ/mol | 69.1 °C | 0.3 °C | 1.56 kcal/mol/K
